According to the supplement of paper PMC7125110:
± gives the standard error. Fewer inactive variants are shown than the library holds.

B1: glmS ribozyme (parent)
chain: AUAAAAGCGCCAGAACUACAGAAAUGUAGUUGACGAGGAGGAGGUUUAUCGAAUUUUCGGCGGAUGCCUCCAAA

How the values were obtained:
Details in all cases: with glucosamine-6-phosphate
[1] = variants of: B1; experiment: self-cleavage kobs at 160 uM GlcN6P; higher = faster cleavage; RNA array
Method in brief: (§1)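 Barcoded ribozyme variants on sequenced MiSeq chips were transcribed in situ by E. coli RNA polymerase and followed at 37 °C through a hybridised Cy3 probe. Glucosamine-6-phosphate at 40 μM to 10 mM in HEPES/KCl/Mg(OAc)2 buffer was flowed in, and tiles were imaged over ~14 h. Signals were normalised to baseline and to non-cleaving reference variants, and per-tile medians were fit to one- or two-exponential decays to give kobs. Weighted Michaelis–Menten fits across concentrations gave kcat and KM.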

[2] = variants of: B1; experiment: self-cleavage kobs at 640 uM GlcN6P; higher = faster cleavage; RNA array
Method in brief: as §1

[3] = variants of: B1; experiment: self-cleavage kobs at 2500 uM GlcN6P; higher = faster cleavage; RNA array
Method in brief: as §1

[4] = variants of: B1; experiment: self-cleavage kobs at 10000 uM GlcN6P; higher = faster cleavage; RNA array
Method in brief: as §1

Variant	self-cleavage kobs at 160 uM GlcN6P [1]	self-cleavage kobs at 640 uM GlcN6P [2]	self-cleavage kobs at 2500 uM GlcN6P [3]	self-cleavage kobs at 10000 uM GlcN6P [4]
AUAAAAGCGUGAGGACUACAGAAAUGUAGUUGACGAGGAGGACGUUUAUCGACUUUUCGGCGGAUGCCUCCAAA [C10U C11G A14G G43C A53C]	< 1e-05 s⁻¹	< 1e-05 s⁻¹	< 1e-05 s⁻¹	
AUAAAAGCGCGAGAACUACAGAAAUGUAGUUGACGAGGAGGAGGUGUAUCGAAUUUUCGGAGGAUACCUCCAAA [C11G U46G C61A G66A]	< 1e-05 s⁻¹	< 1e-05 s⁻¹	< 1e-05 s⁻¹	
AUAAAAGCGCUAGAACUACAGAAAUGUAGUUGACGAGGGGGAUGUUUAUCGAAUUUUGGGCGGAUGCCUACAAA [C11U A39G G43U C58G C70A]	< 1e-05 s⁻¹		< 1e-05 s⁻¹	
AUAAAAGCGUCAGAACUACAGAAAUGUAGUUGACGAGGAGGGGGUUUAUCGAUUUUUCGGCGGAUGCCUCCAAA [C10U A42G A53U]	< 1e-05 s⁻¹			
AUAAAAGCGCCUGAACUACAGAAAUGUAGUUGACGAGGAGUAGGAUUAUCGAAUUUUCGGCGGAUGCCUCCAAA [A12U G41U U45A]	0.00011 ± 2.8e-05 s⁻¹	0.000308 ± 5.9e-05 s⁻¹	0.000989 ± 0.00025 s⁻¹	
AUAAAAGCGCAAGAACUACAGAAAUGUAGCUGACGAGGAGGAGGUUUAUCGAAUUUUCGGCAGAUGCCUCCAAA [C11A U30C G62A]	< 1e-05 s⁻¹	< 1e-05 s⁻¹	< 1e-05 s⁻¹	
AUAAAAGCGUCAGAACUACAGAAAUGUAGUUGACGAGGAGGCGGUUUAUCGAAUUUUCGGCGAAUGCCUCCAAA [C10U A42C G63A]	< 1e-05 s⁻¹	< 1e-05 s⁻¹	< 1e-05 s⁻¹	
AUAAAAGCGCCCGAACUACAGAAAUGUAGUUGACGAGGAGGAUGUUUAUCGACUUUUCGGCGGAUGCCUCCAAA [A12C G43U A53C]	< 1e-05 s⁻¹			
AUAAAAGCGCCGGAUCUACAGAAAUGUAGUUGACGAGGAGGAGGUUUAUCGACUUUUCGGCGGAUGACUCCAAA [A12G A15U A53C C67A]	< 1e-05 s⁻¹			
AUAAAAGCGCGAGCACUACAGAAAUGUAGUUGACGAGGAGGAGGUUUAUCGAAUUUUCGGCGGAUGCCACCAAA [C11G A14C U69A]	0.000527 ± 0.00014 s⁻¹		9.25e-05 ± 3.6e-05 s⁻¹	
AUAAAAGCGCCCGAACUACAGAAAUGUACUUGACGAGGAGGAGGUUUAUCGCAUUUUCGGCGGCUGCCUCCAAA [A12C G29C A52C A64C]	< 1e-05 s⁻¹	< 1e-05 s⁻¹		
AUAAAAGCGCCGGAACUACAGAAAUGUAGUUGGCGAGGAGGAGGUUUAUCGAAUUUUCGGCGGAUGCCUCCAAA [A12G A33G]	< 1e-05 s⁻¹	< 1e-05 s⁻¹	< 1e-05 s⁻¹	< 1e-05 s⁻¹
AUAAAAGCGCCUGAACUACAGAAAUGUAGUUGACGAGGAGGAGGUUUAUCGAAUUUUCGGCGGAUGCCGACAAA [A12U U69G C70A]	7.03e-05 ± 2.1e-05 s⁻¹	8.9e-05 ± 2.3e-05 s⁻¹	3.11e-05 ± 1.5e-05 s⁻¹	
AUAAAAGCGCCUGAACUACAGAAAUGUAGUGGACGAGGAGGAGGUUUAUCGAAUUUUCGGCGGAUGCCCCCAAA [A12U U31G U69C]	0.000336 ± 6.5e-05 s⁻¹	0.000408 ± 0.00019 s⁻¹	0.0026 ± 0.00042 s⁻¹	
AUAAAAGCGUCAGAACUACAGAAAUGUAGUUGACGAGGAGGAGGUUUAUCCAAUUUUCGGCGGAUGCCUCCAAA [C10U G51C]	< 1e-05 s⁻¹			
AUAAAAGCGCAAGAACUACAGAAAUGUAGUUGACGAGCAGGAGGUUUAUCGAAUUUUCGGCGGAUGCCUCCAAA [C11A G38C]	< 1e-05 s⁻¹		< 1e-05 s⁻¹	

Variant	self-cleavage kobs at 160 uM GlcN6P [1]	self-cleavage kobs at 640 uM GlcN6P [2]	self-cleavage kobs at 2500 uM GlcN6P [3]	self-cleavage kobs at 10000 uM GlcN6P [4]
AUAAAAGCGCCCGAACUACAGAAAUGUAGUUGACGAGGAGGCGGUUUAUCGCAUUUUCGGUGGAUGCCACCAAA [A12C A42C A52C C61U U69A]	< 1e-05 s⁻¹			
AUAAAAGCGCGAGAACUACAGAAAUGUAGUUGACGAGGAGGCGGUUUAUCGAAUUUUCGGCGGAUGCCUCCAAA [C11G A42C]	< 1e-05 s⁻¹	< 1e-05 s⁻¹	< 1e-05 s⁻¹	
AUAAAAGCGCUAGAACUACAGAAAUGUAGUUGACGAGGAGGUUGUUUAUCGAGUUUUCGGCGGAUGCGUCCAAA [C11U A42U G43U A53G C68G]	0.0001 ± 3.7e-05 s⁻¹	0.000213 ± 6.4e-05 s⁻¹	0.0001 ± 3.5e-05 s⁻¹	
AUAAAAGCGCCGGAACUACAGAAAUGUAGUUGACGAGGAGUAGGUUUAUCCAAUUUUCGGCGGAUGCCUCAAAA [A12G G41U G51C C71A]	< 1e-05 s⁻¹	< 1e-05 s⁻¹	< 1e-05 s⁻¹	
AUAAAAGCGCCGGAACUACAGAAAUGUAGUUGACGAGGAGGAGGUUAAUCGAAUUUUCGGCGGAUGCCUUCAAA [A12G U47A C70U]	5.89e-05 ± 2.2e-05 s⁻¹	0.000192 ± 3e-05 s⁻¹	0.000394 ± 9.5e-05 s⁻¹	
AUAAAAGCGCCGGAACUACAGAAAUGUAGUUGACGAGGUGGAGGUUUAUCGACUUUUCGGCGGAUGCCUCCAAA [A12G A39U A53C]	< 1e-05 s⁻¹			
AUAAAAGCGCCUCAACUACAGAAAUGUAGUUGACGAGGAGGAGGUUGAUCGAAUUUUCGCCGGAUGCCUCCAAA [A12U G13C U47G G60C]	< 1e-05 s⁻¹		< 1e-05 s⁻¹	
AUAAAAGCGCCUGAACUACAGAAAUGUAGUUGACAAGGAUGAGGUUUAUCGAAUUUUCGGCGGAUGCCUCCAAA [A12U G35A G40U]	< 1e-05 s⁻¹	< 1e-05 s⁻¹	< 1e-05 s⁻¹	
AUAAAAGCGCAAGAACUACAGAAAUGUAGUUGACGAGGAGUACGUUUAUCGAAUUUUCGGCGGAUGCCUCCAAA [C11A G41U G43C]	< 1e-05 s⁻¹	< 1e-05 s⁻¹		
AUAAAAGCGCGAGAACUACAGAAAUGUAGUUGACGAGGAGGAGGUUGAUCGAAUUUUCGGCGGAUGCCUCCAAA [C11G U47G]	< 1e-05 s⁻¹		< 1e-05 s⁻¹	< 1e-05 s⁻¹
AUAAAAGCGCGAGAACUACAGAAAUGUAGUUGACGCGGAGCAGGUUUAUCGAAUUUUCGACGGAUGCCUCCAAA [C11G A36C G41C G60A]	< 1e-05 s⁻¹	< 1e-05 s⁻¹	< 1e-05 s⁻¹	
AUAAAAGCGCCGGAACUACAGAAAUGUAGUUGACGAGGAAGAGGUUUAUCGAAUUUUCGGUGGAUGCCUCCAAA [A12G G40A C61U]	< 1e-05 s⁻¹			
AUAAAAGCGCGAGGACUACAGAAAUGUAGUCGACGAGGAGGGGGUUUAUCGAAUUGUCGGCGGUAGCCUCCAAA [C11G A14G U31C A42G U56G A64U U65A]	< 1e-05 s⁻¹	< 1e-05 s⁻¹		
AUAAAAGCGCAAGAACUACAGAAAUGUAGUUGACGAGGAGGAGGUUUAUCGAAUUUUUGGCGGAUGCAUCCAAA [C11A C58U C68A]	7.67e-05 ± 3.2e-05 s⁻¹		7.25e-05 ± 2.7e-05 s⁻¹	5.61e-05 ± 1.5e-05 s⁻¹
AUAAAAGCGCCCGAACUACAGAAAUGUAGUUGACGAGGAGGAGGUUUAUCGAAUUUUCGGCGGCUGCAUCAAAA [A12C A64C C68A C71A]	< 1e-05 s⁻¹	< 1e-05 s⁻¹	< 1e-05 s⁻¹	
AUAAAAGCGCCUGAACUACAGAAAUGUAGUUGACGAGGAGGAGGGUUAUCGAAUUAUCGGCGGAUGCCUCCAAA [A12U U45G U56A]	0.000953 ± 0.00021 s⁻¹	0.00298 ± 0.0006 s⁻¹		
